Reference: paper PMC12533644, “Nuclear 2′-O-methylation regulates RNA splicing through its binding protein FUBP1”

Molecular target: FUBP1-strep (UniProt Q96AE4 1-644)
Test: EMSA; EMSA: 10 mM Tris pH 7.5, 140 mM KCl, 10 mM NaCl, 1 mM MgCl2, 10% glycerol, 1 mM DTT, RNase inhibitor 1 U/ul, room temperature 30 min; probe 20 nM (Fig. 3A) or 10 nM (Fig. 5E, S5D). Pull-down: HepG2 lysate (50 mM Tris pH 7.5, 100 mM NaCl, 1% NP-40, 0.5% deoxycholate) + tRNA 50 ug/ml, RT 30 min then 4 C 90 min; washes 10 mM Tris pH 7.5, 150 mM KCl, 1.5 mM MgCl2, 0.1% NP-40, 0.5 mM DTT
Conditions: protein: recombinant; tags: C-terminal Strep-tag; label: 5' FAM

Sequence of FUBP1-strep (Q96AE4 whole entry): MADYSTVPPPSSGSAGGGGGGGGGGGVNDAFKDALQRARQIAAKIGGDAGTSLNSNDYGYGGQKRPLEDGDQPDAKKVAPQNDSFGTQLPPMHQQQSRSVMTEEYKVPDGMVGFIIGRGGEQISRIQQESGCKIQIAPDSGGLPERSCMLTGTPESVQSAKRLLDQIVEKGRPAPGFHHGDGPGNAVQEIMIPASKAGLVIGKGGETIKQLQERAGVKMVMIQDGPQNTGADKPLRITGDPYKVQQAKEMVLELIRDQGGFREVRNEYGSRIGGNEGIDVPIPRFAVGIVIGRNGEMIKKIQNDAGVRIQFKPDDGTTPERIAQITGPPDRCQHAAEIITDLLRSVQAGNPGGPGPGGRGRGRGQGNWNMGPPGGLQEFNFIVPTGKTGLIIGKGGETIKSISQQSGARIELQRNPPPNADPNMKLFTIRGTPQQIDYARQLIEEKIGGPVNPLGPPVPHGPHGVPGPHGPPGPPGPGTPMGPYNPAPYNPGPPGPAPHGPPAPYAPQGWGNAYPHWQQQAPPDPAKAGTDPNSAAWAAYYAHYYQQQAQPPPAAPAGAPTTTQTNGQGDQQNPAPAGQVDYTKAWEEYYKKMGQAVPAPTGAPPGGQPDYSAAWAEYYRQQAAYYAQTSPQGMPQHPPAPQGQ

Binder	binding result
ACUGAACGCCUUUAAGUCAGAAUCCCACCC (ssRNA, 2'-O-methyl at G4, G16, C18, A19, C24, C25, A27) [SEC14L1 Nm]	binds
CGCUGAGUGCGCUGCACUGACCUUCUUCCA (ssRNA, 2'-O-methyl, multiple sites) [SNX5 Nm]	binds
